Series [1] deals with the molecule itself. The series can be described thus: non-reducing against reducing SDS-PAGE with Western blot; virions stripped from 293T cells by subtilisin A (0, 5 or 50 µg/ML), pelleted through sucrose, lysed in RIPA; anti-HA blot without βME and with βME. In general terms: Immunoblotting shows a protein as a band on a membrane.
Series [2] addresses T1, HA-tetherin (N-terminal HA-tagged tetherin), in virions released by PI-PLC (human), Q10589.
T1 chain: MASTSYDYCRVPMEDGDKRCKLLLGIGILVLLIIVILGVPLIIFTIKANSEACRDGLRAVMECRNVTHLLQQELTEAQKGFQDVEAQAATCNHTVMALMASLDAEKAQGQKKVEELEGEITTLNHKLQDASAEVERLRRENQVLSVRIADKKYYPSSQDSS
The following applies: remark: other sources report otherwise.

Series [3] has as its target T2, tetherin-HA (HA tag inserted after the extracellular coiled-coil domain), in virions released by PI-PLC (human), Q10589.
T2 chain: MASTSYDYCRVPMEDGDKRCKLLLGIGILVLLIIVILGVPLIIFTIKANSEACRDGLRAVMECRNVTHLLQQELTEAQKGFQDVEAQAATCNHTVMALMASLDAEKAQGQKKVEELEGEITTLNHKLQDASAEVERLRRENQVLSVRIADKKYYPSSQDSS
The following applies: remark: other sources report otherwise.

B1: N-terminal fragment of HA-tetherin left inside virions after subtilisin A treatment (domain or fragment, human, UniProt Q10589 1-67, looked up)
chain: MASTSYDYCRVPMEDGDKRCKLLLGIGILVLLIIVILGVPLIIFTIKANSEACRDGLRAVMECRNVT
notes: tetherin (CD317, BST-2, HM1.24), human, Swiss-Prot Q10589; N-terminal fragment left after subtilisin A cleavage; Disulfide-linked dimer: ~26 kDa without βME, ~13 kDa with βME; also called dimeric N-termini; HA fragment of ~26 kDa (non-reducing), ~13 kDa (reducing); source: 293T, transfected with HIV-1 Δvpu and HA-tetherin; cells treated with subtilisin A; released virions pelleted through sucrose …
In general, stoichiometry N refers to a count of units in the complex or per binding partner. On to B1, for which the “stoichiometry N” value in series [1] is 2.

B2: HA-tetherin (N-terminal HA-tagged tetherin), in virions released by PI-PLC, Q10589 1-161 (natural protein)
chain: MASTSYDYCRVPMEDGDKRCKLLLGIGILVLLIIVILGVPLIIFTIKANSEACRDGLRAVMECRNVTHLLQQELTEAQKGFQDVEAQAATCNHTVMALMASLDAEKAQGQKKVEELEGEITTLNHKLQDASAEVERLRRENQVLSVRIADKKYYPSSQDSS
modifications: here or on the partner: C-terminal GPI anchor, cut by PI-PLC; C-terminal GPI anchor, cut by PI-PLC
Consider B2, for which the stoichiometry N in series [2] was 2.

B3: tetherin-HA (HA tag inserted after the extracellular coiled-coil domain), in virions released by PI-PLC, Q10589 1-161 (natural protein)
chain: MASTSYDYCRVPMEDGDKRCKLLLGIGILVLLIIVILGVPLIIFTIKANSEACRDGLRAVMECRNVTHLLQQELTEAQKGFQDVEAQAATCNHTVMALMASLDAEKAQGQKKVEELEGEITTLNHKLQDASAEVERLRRENQVLSVRIADKKYYPSSQDSS
modifications: here or on the partner: C-terminal GPI anchor, cut by PI-PLC; C-terminal GPI anchor, cut by PI-PLC
Turning to B3, the stoichiometry N in series [3] was found to be 2.
